Results published in patent US10357539B2, “Use of peptides that block metadherin-SND1 interaction as treatment for cancer” (THE TRUSTEES OF PRINCETON UNIVERSITY, priority 2014, dated 2019).
Substitutions are numbered along the chain they refer to. Names may count otherwise. Where no end group is shown, it is not given here.

T1: SND1 (Homo sapiens, UniProt Q7KZF4)
T1 construct: 15 μg of His-SND1 (16-339) was added to the resin; made in house; host or cells: E. coli DH5α
T1 sequence (Q7KZF4 1-339): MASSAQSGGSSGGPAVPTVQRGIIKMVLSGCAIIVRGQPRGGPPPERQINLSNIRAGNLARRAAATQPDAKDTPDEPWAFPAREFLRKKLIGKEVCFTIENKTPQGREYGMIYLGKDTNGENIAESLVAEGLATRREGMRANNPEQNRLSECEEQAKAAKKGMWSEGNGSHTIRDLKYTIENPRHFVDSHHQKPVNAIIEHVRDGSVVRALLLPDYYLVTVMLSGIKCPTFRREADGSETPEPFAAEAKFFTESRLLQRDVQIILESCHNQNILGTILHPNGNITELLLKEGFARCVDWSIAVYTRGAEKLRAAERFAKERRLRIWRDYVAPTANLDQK

T2: Myc-MTDH (Homo sapiens, UniProt Q86UE4, A78S/T317A)
T2 construct: Full-length HA-tagged SND1 was co-expressed with full-length Myc-tagged wild-type (WT) or mutant MTDH in HEK293T cells; expressed in transfected cells; host or cells: HEK293T
T2 sequence (Q86UE4 1-582 A78S/T317A): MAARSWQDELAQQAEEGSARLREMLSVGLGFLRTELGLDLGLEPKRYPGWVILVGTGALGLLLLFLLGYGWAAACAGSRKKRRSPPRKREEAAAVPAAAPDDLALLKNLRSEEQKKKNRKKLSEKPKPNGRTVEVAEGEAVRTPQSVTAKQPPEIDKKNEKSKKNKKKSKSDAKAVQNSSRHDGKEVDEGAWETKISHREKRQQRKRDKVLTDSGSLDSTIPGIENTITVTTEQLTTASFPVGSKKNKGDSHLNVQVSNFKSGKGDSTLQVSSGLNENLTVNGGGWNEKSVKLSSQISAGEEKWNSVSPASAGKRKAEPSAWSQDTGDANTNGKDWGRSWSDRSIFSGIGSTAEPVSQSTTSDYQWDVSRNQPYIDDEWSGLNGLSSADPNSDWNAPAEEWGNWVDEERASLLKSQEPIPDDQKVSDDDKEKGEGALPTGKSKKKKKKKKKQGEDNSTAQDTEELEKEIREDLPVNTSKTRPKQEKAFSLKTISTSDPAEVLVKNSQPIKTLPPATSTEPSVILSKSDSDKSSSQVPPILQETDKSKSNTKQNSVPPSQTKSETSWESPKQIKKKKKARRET

T3: MTDH (364-582) (Homo sapiens, UniProt Q86UE4)
T3 construct: made in house; host or cells: E. coli DH5α
T3 sequence (Q86UE4 364-582): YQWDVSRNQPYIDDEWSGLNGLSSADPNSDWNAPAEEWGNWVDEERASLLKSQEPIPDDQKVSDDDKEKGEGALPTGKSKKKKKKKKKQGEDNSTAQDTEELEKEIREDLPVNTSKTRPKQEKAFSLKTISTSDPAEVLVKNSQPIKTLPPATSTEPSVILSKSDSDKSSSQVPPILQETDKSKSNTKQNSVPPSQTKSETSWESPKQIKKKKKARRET

B1: R324E: SND1 mutant R324E (protein, listed as Homo sapiens)
chain: MASSAQSGGSSGGPAVPTVQRGIIKMVLSGCAIIVRGQPRGGPPPERQINLSNIRAGNLARRAAATQPDAKDTPDEPWAFPAREFLRKKLIGKEVCFTIENKTPQGREYGMIYLGKDTNGENIAESLVAEGLATRREGMRANNPEQNRLSECEEQAKAAKKGMWSEGNGSHTIRDLKYTIENPRHFVDSHHQKPVNAIIEHVRDGSVVRALLLPDYYLVTVMLSGIKCPTFRREADGSETPEPFAAEAKFFTESRLLQRDVQIILESCHNQNILGTILHPNGNITELLLKEGFARCVDWSIAVYTRGAEKLRAAERFAKERRLEIWRDYVAPTANLDQKDKQFVAKVMQVLNADAIVVKLNSGDYKTIHLSSIRPPRLEGENTQDKNKKLRPLYDIPYMFEAREFLRKKLIGKKVNVTVDYIRPASPATETVPAFSERTCATVTIGGINIAEALVSKGLATVIRYRQDDDQRSSHYDELLAAEARAIKNGKGLHSKKEVPIHRVADISGDTQKAKQFLPFLQRAGRSEAVVEYVFSGSRLKLYLPKETCLITFLLAGIECPRGARNLPGLVQEGEPFSEEATLFTKELVLQREVEVEVESMDKAGNFIGWLHIDGANLSVLLVEHALSKVHFTAERSSYYKSLLSAEEAAKQKKEKVWAHYEEQPVEEVMPVLEEKERSASYKPVFVTEITDDLHFYVQDVETGTQLEKLMENMRNDIASHPPVEGSYAPRRGEFCIAKFVDGEWYRARVEKVESPAKIHVFYIDYGNREVLPSTRLGTLSPAFSTRVLPAQATEYAFAFIQVPQDDDARTDAVDSVVRDIQNTQCLLNVEHLSAGCPHVTLQFADSKGDVGLGLVKEGLVMVEVRKEKQFQKVITEYLNAQESAKSARLNLWRYGDFRADDADEFGYSR
B2: MTDH fragment 364-582: GST-tagged MTDH fragment, amino acids 364-582 of SEQ ID NO: 1 (protein, listed as Homo sapiens)
chain: T3 sequence (Q86UE4 364-582)
modifications: GST tag
B3: TPM3: MTDH triple-point mutant W404D, D406R and E407R (protein)
chain: T3 sequence (Q86UE4 364-582) with W41D, D43R, E44R
modifications: left off: a dimerising Fc or GST
notes: MTDH triple-point mutant W404D, D406R and E407R
B4: R316E: SND1 mutation located outside the interface, negative control (protein)
chain: VPTVQRGIIKMVLSGCAIIVRGQPRGGPPPERQINLSNIRAGNLARRAAATQPDAKDTPDEPWAFPAREFLRKKLIGKEVCFTIENKTPQGREYGMIYLGKDTNGENIAESLVAEGLATRREGMRANNPEQNRLSECEEQAKAAKKGMWSEGNGSHTIRDLKYTIENPRHFVDSHHQKPVNAIIEHVRDGSVVRALLLPDYYLVTVMLSGIKCPTFRREADGSETPEPFAAEAKFFTESRLLQRDVQIILESCHNQNILGTILHPNGNITELLLKEGFARCVDWSIAVYTRGAEKLRAAEEFAKERRLRIWRDYVAPTANLDQK
modifications: left off: small tags and cut ends
notes: SND1 mutation located outside the interface, negative control

Legend:
SND1 = molecular target: T1, SND1; experiment: GST-mediated pull-down of SND1 by GST-tagged MTDH fragments and mutants; type: binding; settings: His6-SND1ΔC (1-339); Coomassie blue staining
Method in brief: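 GST-MTDH fragments or mutants (~20 μg) on glutathione resin incubated with 15 μg His-SND1 (16-339) in 25 mM Tris pH 8.0, 150 mM NaCl, 3 mM DTT plus 2 mg/ml BSA. Bound protein resolved by SDS-PAGE, Coomassie-stained; bound SND1 ratio quantified by densitometry over 3 repeats.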

Myc-MTDH = molecular target: T2, Myc-MTDH; experiment: Co-immunoprecipitation of HA-SND1 (WT or mutant) with Myc-MTDH in HEK293T cells; type: cell-based; settings: HEK293T cell lysates
Text: (§1) (FIG. 22A) In vitro pull-down of SND1 (16-339) by GST-tagged MTDH (364-582) harboring WT or mutant sequence. The proteins bound to GS4B were examined on SDS-PAGE and visualized by Coomassie blue staining. (FIG. 22B) In vitro pull-down of WT and mutant SND1 (16-339) by GST-tagged MTDH (364-582). The bound proteins were examined as in (FIG. 22A). For both (FIG. 22A) and (FIG. 22B), experiments were repeated three times; representative results are shown. The normalized percentage of binding was averaged from three experiments; mean±SEM was shown below the data. (FIG. 22C) HEK293T cells were transfected with human HA-SND1, WT Myc-MTDH or Myc-MTDH with indicated single point mutation. Lysates were immunoprecipitated with anti-Myc antibody and immunoblotted with the indicated antibodies. (FIG. 22D) HEK293T cells were transfected with human Myc-MTDH, WT HA-SND1 or mutant HA-SND1 with indicated single point mutations or deletions. Lysates were immunoprecipitated with anti-Myc and immunoblotted with the indicated antibodies.
Immunoprecipitation and western blot: For in vivo immunoprecipitation (IP) experiments, cultured cells were washed in cold PBS and lysed in lysis buffer (20 mM Tris pH 7.4, 0.15 M NaCl, 1 mM EDTA, 1 mM EGTA, 1% Tx-100, 0.0025 M Na2P2O7, 1 mM β-glycerolphosphate, 1 mM Na3VO4, and 1 mM NaF) with an EDTA-free protease inhibitor mixture (Roche Applied Science) and PMSF. Cell lysates were then incubated on ice for 10 min, centrifuged, and precleared by incubating with protein A/G beads (Santa Cruz Biotechnology) for 1 h at 4° C. For IP bead preparation, 30 μl of protein A/G beads were incubated with 5 μg of antibodies for 2 h at 4° C. IPs were carried out for overnight at 4° C., and beads were centrifuged, washed and subsequently boiled for 5 min in SDS protein loading buffer to elute bound protein. IP lysates were subjected to western blotting with indicated antibodies.

MTDH (364-582) = molecular target: T3, MTDH (364-582); experiment: GST-mediated pull-down of SND1 constructs and mutants by GST-tagged MTDH (364-582); type: binding; settings: SND1 mutants in SND1 (16-339)
Text: as §1
GST-Mediated Pull-Down Assay: ˜20 μg of GST-MTDH (different truncation forms and site mutants) was bound to 10 μl of glutathione resin via GST tag. The resin was washed with 200 μl assay buffer (25 mM Tris, PH8.0, 150 mM NaCl, 3 mM DTT) three times to remove the excess unbound protein. 15 μg of His-SND1 (16-339) was added to the resin in a 100 μl volume suspended in the assay buffer with 2 mg/ml of BSA. The mixture was washed with 200 μl assay buffer twice before examined by SDS-PAGE, and visualized by Coomassie blue staining. The experiments were repeated 3 times and the ratio of SND1 associated with GST-MTDH was analyzed by ImageJ.

Row | Molecule | SND1-binding of MTDH fragments and triple mutants, in vitro (SND1) | interaction of full-length HA-SND1 (WT or mutant) with Myc-MTDH (Myc-MTDH) | MTDH-binding of SND1 domains and mutants, in vitro (MTDH (364-582))
1 | 22 amino-acid fragment (residues 386-407): GST-tagged minimal SND1-binding fragment of MTDH, residues 386-407 (SSADPNSDWNAPAEEWGNWVDE; also: GST-tagged fragment (tag left off)) | sufficient for SND1-binding | – | –
2 | B1 | – | significantly reduced the binding | significantly weakened the MTDH-binding
3 | B2 | bound stoichiometrically | – | –
4 | B3 | bound SND1ΔC as effectively as the WT MTDH | – | –
5 | B4 | – | bound readily with Myc-MTDH | barely affected MTDH-binding
